Assay [1] concerns the target T1, human wild-type RON (cell surface) (human, UniProt Q04912 25-1400). Briefly: cell-based or functional assay.
Assay [2] addresses T1, human wild-type RON (cell surface). Briefly: FACS titration on PC3 cells, 4 C. The protocol:
(§1) Binding to cell surface human wild-type RON and the delta 160 RON variant by antibodies 07F01, Sh07F01-62, 29B06, and Sh29B06-78 was measured at 4° C., using Fluorescence Activated Cell Sorting (FACS). PC3 cells expressing the human wild-type RON, and HT29 cells expressing the delta 160 variant, were harvested using cell dissociation buffer (Invitrogen), washed twice with FACS buffer (PBS with 0.5% BSA), and treated 10 minutes with Cyto Q Antibody diluent and FC receptor block (Innovex Biosciences, Richmond, Calif.). Purified antibodies were diluted in FACS buffer over a concentration range from 0.01 nM to 25 nM. Cells were incubated with 100 μl of antibody for one hour, washed with FACS buffer three times, and incubated for 45 minutes with goat anti-mouse PE-conjugated antibody (Jackson ImmunoResearch Laboratories, West Grove, Pa.) or donkey anti-human PE-conjugated antibody (Jackson ImmunoResearch Laboratories, West Grove, Pa.). Cells were washed three times with FACS buffer, resuspended in 300 μl of FACS buffer, and analyzed using a Beckman Coulter Cytomics FC 500 FACS instrument. All four antibodies were compared in the same experiment.

Assay [3] addresses T2, delta 160 RON variant (cell surface) (human, UniProt Q04912 25-1400).
T2 construct: whole, on cells; Splice variant; also called delta 160 variant
Put plainly: FACS titration on HT29 cells, 4 C. The protocol: Binding to cell surface human wild-type RON and the delta 160 RON variant by antibodies 29B06 and 07F01 was measured at 4° C., using Fluorescence Activated Cell Sorting (FACS). PC3 cells expressing the human wild-type RON, and HT29 cells expressing the delta 160 variant, were harvested using cell dissociation buffer (Invitrogen), washed twice with FACS buffer (PBS with 0.5% BSA), and treated for 10 minutes with Cyto Q Antibody diluent and FC receptor block (Innovex Biosciences, Richmond, Calif.). Purified antibodies were diluted in FACS buffer over a concentration range from 0.02 nM to 40 nM. Cells were incubated with 100 μl of antibody for one hour, washed with FACS buffer three times, and incubated for 45 minutes with goat anti-mouse PE-conjugated antibody (Jackson ImmunoResearch Laboratories, West Grove, Pa.). Cells were washed three times with FACS buffer, resuspended in 300 μl of FACS buffer, and analyzed using a Beckman Coulter Cytomics FC 500 FACS instrument.

The target of assay [4] is T2, delta 160 RON variant (cell surface). Put plainly: FACS titration on HT29 cells, 4 C. The procedure: as §1
The source holds these as a separate data set.

Assay [5] has the same target. Briefly: FACS, 10 ug/ml antibody, HT-29 cells, 4 C. The procedure: Binding to cell surface wild-type RON and delta 160 RON at 4° C. was determined for antibodies 07F01, 12B11, 17F06, 18H09, and 29B06, using FACS. Cells expressing wild-type RON (PC3), and cells expressing delta 160 RON (HT-29), were harvested using cell dissociation buffer (Invitrogen), washed twice with FACS buffer (0.5% BSA PBS) and treated with CytoQ Antibody diluent and FC receptor block (Innovex). Purified antibodies were diluted at a concentration of 10 μg/ml, in FACS buffer. Cells were incubated with 100 μl of antibody mix for one hour, washed with FACS buffer three times, and incubated for 45 minutes with goat anti-mouse PE conjugated antibody (Jackson Immunoresearch Laboratories). Cells were washed three times with FACS buffer, resuspended in 300 μl of FACS buffer and analyzed using a Beckman Coulter Cytomics FC 500 FACS instrument.
A general note: Flow cytometry measures light scatter and fluorescence of single cells or particles in a stream.

For assay [6], the target named is T3, recombinant human RON SEMA and PSI domains (human, UniProt Q04912 25-571).
T3 construct: domain: SEMA+PSI; Commercial protein (R&D Systems); also called rhRON SEMA+PSI; hRON SEMA+PSI
Briefly: ECL competition, MSP binding to coated hRON SEMA+PSI; competitor MSP; average. The protocol:
The biochemical neutralization assay measures inhibition of MSP binding to hRON by antibodies in hybridoma supernatants, using electrochemiluminescence (ECL). MA2400 96-well high binding plates (Meso Scale Discovery) were coated with 25 μl of 0.42 μg/mL hRON SEMA+PSI (an N-terminal portion of the ECD of hRON; R&D Systems) in PBS for one hour at room temperature with agitation. The plates were washed four times with PBS+0.1% Tween-20 (PBST), and blocked with 150 μl of charcoal-stripped fetal bovine serum (FBS) (Gibco). The hybridoma supernatant were added and incubated for 45 minutes at room temperature. After incubation, 5 μl of MSP (3 μg/mL) in charcoal stripped FBS was added to each well, and incubated for 45 minutes. The plate was washed four times with PBST, and 25 μl of 1 μg/mL biotinylated anti-MSP antibody (R&D Systems) was added to the plates for one hour at room temperature with agitation. The plates were washed four times with PBST, and incubated with 25 μl of 1 μg/mL ST-streptavidin (Meso Scale Discovery) for one hour at room temperature with agitation. The plates were washed four times with PBST, and 150 μl read buffer (Meso Scale Discovery) was added to each well before the plates were analyzed on a Sector Imager 2400 (Meso Scale Discovery) instrument. Antibodies 07F01, 18H09 and 29B06 each blocked MSP binding to hRON SEMA+PSI in this neutralization assay.
Antibodies 07F01, 12B11, 17F06, 18H09, and 29B06 were tested for inhibition of MSP binding to hRON SEMA+PSI, as measured by electrochemiluminescence (ECL) assay as described in Example 3. The antibodies (concentration range: 0.006-10 μg/mL) were incubated for 45 minutes at room temperature.

Where two headings read alike, the source gives them in different places.

B1: 29B06 (antibody, mouse IgG1, kappa)
heavy: EVQLQESGPSLVKPSQTLSLTCSVTGDSITSGYWNWIRKFPGNKLEYMGYISYSGKTYYNPSLKSRISITRDTSKNHYYLQLISVTAEDTATYYCARSKYDYAMDYWGQGTSVTVSSAKTTPPSVYPLAPGSAAQTNSMVTLGCLVKGYFPEPVTVTWNSGSLSSGVHTFPAVLQSDLYTLSSSVTVPSSTWPSETVTCNVAHPASSTKVDKKIVPRDCGCKPCICTVPEVSSVFIFPPKPKDVLTITLTPKVTCVVVDISKDDPEVQFSWFVDDVEVHTAQTQPREEQFNSTFRSVSELPIMHQDWLNGKEFKCRVNSAAFPAPIEKTISKTKGRPKAPQVYTIPPPKEQMAKDKVSLTCMITDFFPEDITVEWQWNGQPAENYKNTQPIMDTDGSYFVYSKLNVQKSNWEAGNTFTCSVLHEGLHNHHTEKSLSHSPGK
light: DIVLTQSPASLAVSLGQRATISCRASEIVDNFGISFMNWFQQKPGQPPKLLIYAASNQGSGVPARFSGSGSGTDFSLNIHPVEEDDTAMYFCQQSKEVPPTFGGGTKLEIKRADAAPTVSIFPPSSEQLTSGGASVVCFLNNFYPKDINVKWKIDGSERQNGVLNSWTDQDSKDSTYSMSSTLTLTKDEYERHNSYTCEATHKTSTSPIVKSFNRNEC
notes: Murine hybridoma monoclonal, IgG1/kappa; also called mu29B06; antibody 29B06
B1: the “Percent Inhibition of MSP-induced HPAF-II cell migration, antibody 2 ug/ml” value in assay [1] was found to be 96.8%. Besides, the Kd stood at 0.136 nM in assay [2], 0.146 nM in assay [3] and 0.167 nM in assay [4]. Further, the “HT-29 % cell surface binding” value in assay [5] was 99%. The “Maximum Neutralization (%)” value in assay [6] was 87.6%.

B2: 07F01 (antibody, mouse IgG1, kappa, V domains shown)
VH: EVKLLESGGGLVQPGGSLKLSCAASGFDFSRHWMSWVRLAPGKGLEWIAEINPDSRTINYTPSLKEKFIISRDNAKNSLFLQMNRVRSEDTALYYCARRVRIHYYGAMDCWGQGTSVTVSS
VL: DIVLTQSQKIVSTSVGARVSVTCKASQNVGSSLVWYQQKPGQSPKTLIYSASFRYSGVPDRFTGSGSGTDFTLTISNVQSEDLADYFCQQYNNYPLTFGAGTKLELKR
notes: Murine hybridoma monoclonal, IgG1/kappa; also called mu07F01; antibody 07F01
Regarding B2, in assay [1], the “Percent Inhibition of MSP-induced HPAF-II cell migration, antibody 2 ug/ml” value came to 95.6%. For the same molecule, the Kd in assay [2] came out at 0.053 nM; in assay [3], 0.024 nM; in assay [4], 0.1 nM. Besides, the “HT-29 % cell surface binding” value in assay [5] is 99.1%. Moreover, the “Maximum Neutralization (%)” value in assay [6] was 88.3%.

In general, Kd refers to the free concentration of one partner at which half of the binding sites on the other are occupied at equilibrium, for simple one-to-one binding. High values mean a looser complex, low ones a tighter complex.

The values above are taken from patent US20120027773A1 (AVEO PHARMACEUTICALS, published 2012).
